# Data reported in IntAct's records for PubMed 29039417.
# B1: Protein PTHB1 (Homo sapiens), Q3SYG4 (parent)
# chain: MSLFKARDWWSTILGDKEEFDQGCLCLANVDNSGNGQDKIIVGSFMGYLRIFSPHPAKTGDGAQAEDLLLEVDLRDPVLQVEVGKFVSGTEMLHLAVLHSRKLCVYSVSGTLGNVEHGNQCQMKLMYEHNLQRTACNMTYGSFGGVKGRDLICIQSMDGMLMVFEQESYAFGRFLPGFLLPGPLAYSSRTDSFLTVSSCQQVESYKYQVLAFATDADKRQETEQQKLGSGKRLVVDWTLNIGEQALDICIVSFNQSASSVFVLGERNFFCLKDNGQIRFMKKLDWSPSCFLPYCSVSEGTINTLIGNHNNMLHIYQDVTLKWATQLPHIPVAVRVGCLHDLKGVIVTLSDDGHLQCSYLGTDPSLFQAPNVQSRELNYDELDVEMKELQKIIKDVNKSQGVWPMTEREDDLNVSVVVSPNFDSVSQATDVEVGTDLVPSVTVKVTLQNRVILQKAKLSVYVQPPLELTCDQFTFEFMTPDLTRTVSFSVYLKRSYTPSELEGNAVVSYSRPTDRNPDGIPRVIQCKFRLPLKLICLPGQPSKTASHKITIDTNKSPVSLLSLFPGFASQSDDDQVNVMGFHFLGGARITVLASKTSQRYRIQSEQFEDLWLITNELILRLQEYFEKQGVKDFACSFSGSIPLQEYFELIDHHFELRINGEKLEELLSERAVQFRAIQRRLLARFKDKTPAPLQHLDTLLDGTYKQVIALADAVEENQGNLFQSFTRLKSATHLVILLIALWQKLSADQVAILEAAFLPLQEDTQELGWEETVDAAISHLLKTCLSKSSKEQALNLNSQLNIPKDTSQLKKHITLLCDRLSKGGRLCLSTDAAAPQTMVMPGGCTTIPESDLEERSVEQDSTELFTNHRHLTAETPRPEVSPLQGVSE
# partner: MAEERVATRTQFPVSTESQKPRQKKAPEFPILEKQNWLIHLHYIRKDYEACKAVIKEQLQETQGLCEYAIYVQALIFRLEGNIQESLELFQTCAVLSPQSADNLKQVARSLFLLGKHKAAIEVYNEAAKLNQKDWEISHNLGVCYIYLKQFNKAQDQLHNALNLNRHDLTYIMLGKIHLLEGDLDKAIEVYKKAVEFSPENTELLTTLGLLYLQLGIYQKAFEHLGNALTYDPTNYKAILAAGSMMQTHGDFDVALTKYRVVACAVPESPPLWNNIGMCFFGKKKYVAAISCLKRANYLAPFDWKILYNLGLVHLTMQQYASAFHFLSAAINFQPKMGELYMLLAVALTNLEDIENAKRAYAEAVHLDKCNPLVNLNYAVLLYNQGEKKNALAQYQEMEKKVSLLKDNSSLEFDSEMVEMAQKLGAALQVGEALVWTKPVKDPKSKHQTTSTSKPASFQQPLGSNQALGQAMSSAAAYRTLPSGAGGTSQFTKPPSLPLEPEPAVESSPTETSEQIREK
# Variants of: B1
# Conditions: with bbs4_human BBS4, Q96RK4
row,Variant,effect of a mutation on the interaction
1,A730E,with no effect
2,A730K,with no effect
3,G718D,disrupting interaction strength
4,G718K,with no effect
5,G718S,disrupting interaction strength
6,G718A,with no effect
7,G718E,with no effect
8,G718T,disrupting interaction strength
9,A746E,with no effect
10,A746K,with no effect
11,E715K,disrupting interaction strength
12,E715A,with no effect
13,D747N,disrupting interaction strength
14,D747E,with no effect
15,D747A,disrupting interaction strength
16,D747K,with no effect
17,Q742K,with no effect
18,Q742A,with no effect
19,Q742E,with no effect
20,S729E,with no effect
21,S729A,with no effect
22,S729K,with no effect
23,L744K,with no effect
24,L744A,with no effect
25,L744E,with no effect

row,Variant,effect of a mutation on the interaction
1,L752K,with no effect
2,L752E,with no effect
3,L752A,with no effect
4,D711A,with no effect
5,D711K,with no effect
6,D711E,with no effect
7,S723A,with no effect
8,S723E,with no effect
9,S723K,disrupting interaction strength
10,S723P,disrupting interaction strength
11,L720E,with no effect
12,L720K,with no effect
13,L720A,with no effect
14,A708K,with no effect
15,A708E,with no effect
16,V713K,with no effect
17,V713E,with no effect
18,V713A,with no effect
19,V749A,with no effect
20,V749E,with no effect
21,V749K,with no effect
22,Q764A,with no effect
23,Q764K,with no effect
24,Q764E,with no effect
25,K728E,with no effect

row,Variant,effect of a mutation on the interaction
1,K728R,disrupting interaction strength
2,K728A,with no effect
3,W741E,with no effect
4,W741K,with no effect
5,W741A,with no effect
6,L727P,disrupting interaction strength
7,L727A,with no effect
8,L727K,with no effect
9,L727E,with no effect
10,I735E,with no effect
11,I735A,with no effect
12,I735K,with no effect
13,Q722E,with no effect
14,Q722K,with no effect
15,Q722A,with no effect
16,F721A,with no effect
17,F721E,with no effect
18,F721K,disrupting interaction strength
19,Q717E,with no effect
20,Q717K,with no effect
21,Q717A,with no effect
22,T731E,disrupting interaction strength
23,T731I,disrupting interaction strength
24,T731K,with no effect
25,T731A,with no effect

row,Variant,effect of a mutation on the interaction
1,A739E,with no effect
2,A739K,disrupting interaction strength
3,F724E,disrupting interaction strength
4,F724K,with no effect
5,F724A,with no effect
6,A750E,with no effect
7,A750K,with no effect
8,L709K,with no effect
9,L709E,with no effect
10,L709A,with no effect
11,E714A,with no effect
12,E714K,with no effect
13,F756A,with no effect
14,F756K,with no effect
15,F756E,with no effect
16,L736K,with no effect
17,L736A,with no effect
18,L736E,with no effect
19,N716K,with no effect
20,N716A,with no effect
21,N716E,with no effect
22,A710E,with no effect
23,A710K,with no effect
24,L757A,with no effect
25,L757K,with no effect

row,Variant,effect of a mutation on the interaction
1,L757E,with no effect
2,I751E,with no effect
3,I751A,with no effect
4,I751K,with no effect
5,R726A,with no effect
6,R726E,with no effect
7,R726K,with no effect
8,Q760E,with no effect
9,Q760A,with no effect
10,Q760K,with no effect
11,I738E,disrupting interaction strength
12,I738K,disrupting interaction strength
13,I738A,disrupting interaction strength
14,V706K,with no effect
15,V706A,with no effect
16,V706E,with no effect
17,L759A,with no effect
18,L759K,with no effect
19,L759E,with no effect
20,T725A,with no effect
21,T725E,with no effect
22,T725K,with no effect
23,H732E,with no effect
24,H732A,with no effect
25,H732K,with no effect

row,Variant,effect of a mutation on the interaction
1,Q748E,with no effect
2,Q748L,disrupting interaction strength
3,Q748A,disrupting interaction strength
4,Q748K,disrupting interaction strength
5,A755K,with no effect
6,A755E,with no effect
7,E753A,with no effect
8,E753K,with no effect
9,L733E,with no effect
10,L733K,with no effect
11,L733A,disrupting interaction strength
12,V734A,with no effect
13,V734K,with no effect
14,V734E,with no effect
15,L737A,with no effect
16,L737E,with no effect
17,L737K,with no effect
18,L740E,with no effect
19,L740K,with no effect
20,L740A,with no effect
21,A712K,with no effect
22,A712E,with no effect
23,N719K,with no effect
24,N719E,with no effect
25,N719A,disrupting interaction strength

row,Variant,effect of a mutation on the interaction
1,P758E,with no effect
2,P758A,with no effect
3,P758K,with no effect
4,Q705E,with no effect
5,Q705M,disrupting interaction strength
6,Q705K,with no effect
7,E765A,with no effect
8,I707K,with no effect
9,I707A,with no effect
10,I707E,with no effect
11,T763A,with no effect
12,T763E,with no effect
13,T763K,with no effect
14,A754K,with no effect
15,A754E,with no effect
16,S745E,disrupting interaction strength
17,S745A,with no effect
18,S745K,with no effect
19,D762A,with no effect
20,D762E,with no effect
21,D762K,with no effect
22,K743E,with no effect
23,K743A,with no effect
24,E761K,with no effect
25,E761A,with no effect
